Literature values in US20200069786A1, “COMPOSITION AND PROCESS FOR PREPARING VACCINE” (TREOS BIO ZRT., priority 2018, published 2020).
Where two headings read alike, the source gives them in different places.

System: TSA
[1] = TSA expression rate in MELANOMA

B1: gp100 (protein, UniProt P40967 25-661, looked up)
Melanocyte protein PMEL: KVPRNQDWLGVSRQLRTKAWNRQLYPEWTEAQRLDCWRGGQVSLKVSNDGPTLIGANASFSIALNFPGSQKVLPDGQVIWVNNTIINGSQVWGGQPVYPQETDDACIFPDGGPCPSGSWSQKRSFVYVWKTWGQYWQVLGGPVSGLSIGTGRAMLGTHTMEVTVYHRRGSRSYVPLAHSSSAFTITDQVPFSVSVSQLRALDGGNKHFLRNQPLTFALQLHDPSGYLAEADLSYTWDFGDSSGTLISRALVVTHTYLEPGPVTAQVVLQAAIPLTSCGSSPVPGTTDGHRPTAEAPNTTAGQVPTTEVVGTTPGQAPTAEPSGTTSVQVPTTEVISTAPVQMPTAESTGMTPEKVPVSEVMGTTLAEMSTPEATGMTPAEVSIVVLSGTTAAQVTTTEWVETTARELPIPEPEGPDASSIMSTESITGSLGPLLDGTATLRLVKRQVPLDCVLYRYGSFSVTLDIVQGIESAEILQAVPSGEGDAFELTVSCQGGLPKEACMEISSPGCQPPAQRLCQPVLPSPACQLVLHQILKGGSGTYCLNVSLADTNSLAVVSTQLIMPGQEAGLGQVPLIVGILLVLMAVVLASLIYRRRLMKQDFSVPQLPHSSSHWLRLPRIFCSCPIGENSPLLSGQQV
BRAIN
  TSA Expression Rate (ER): 85%
[1]
  Expression Rate (ER) %: 82%

B2: IL13RA2 (protein, UniProt Q14627 27-380, looked up)
Interleukin-13 receptor …: DTEIKVNPPQDFEIVDPGYLGYLYLQWQPPLSLDHFKECTVEYELKYRNIGSETWKTIITKNLHYKDGFDLNKGIEAKIHTLLPWQCTNGSEVQSSWAETTYWISPQGIPETKVQDMDCVYYNWQYLLCSWKPGIGVLLDTNYNLFYWYEGLDHALQCVDYIKADGQNIGCRFPYLEASDYKDFYICVNGSSENKPIRSSYFTFQLQNIVKPLPPVYLTFTRESSCEIKLKWSIPLGPIPARCFDYEIEIREDDTTLVTATVENETYTLKTTNETRQLCFVVRSKVNIYCSDDGIWSEWSDKQCWEGEDLSKKTLLRFWLPFGFILILVIFVTGLLLRKPNTYPKMIPEFFCDT
BRAIN
  TSA Expression Rate (ER): 95%
TSA expression rate in LUNG cancer
  Expression Rate (ER) %: 12%
TSA expression rate in PEDIATRIC
  Expression Rate (ER) %: 58%

B3: PBK (protein, UniProt Q96KB5 1-322, looked up)
Lymphokine-activated killer …: MEGISNFKTPSKLSEKKKSVLCSTPTINIPASPFMQKLGFGTGVNVYLMKRSPRGLSHSPWAVKKINPICNDHYRSVYQKRLMDEAKILKSLHHPNIVGYRAFTEANDGSLCLAMEYGGEKSLNDLIEERYKASQDPFPAAIILKVALNMARGLKYLHQEKKLLHGDIKSSNVVIKGDFETIKICDVGVSLPLDENMTVTDPEACYIGTEPWKPKEAVEENGVITDKADIFAFGLTLWEMMTLSIPHINLSNDDDDEDKTFDESDFDDEAYYAALGTRPPINMEELDESYQKVIELFSVCTNEDPKDRPSAAHIVEALETDV
BRAIN
  TSA Expression Rate (ER): 100%
HCC
  TSA Expression Rate (ER): 64%
TSA expression rate in BLADDER cancer
  Expression Rate (ER) %: 43%

B4: TYR (protein, UniProt P14679 19-529, looked up)
Tyrosinase: HFPRACVSSKNLMEKECCPPWSGDRSPCGQLSGRGSCQNILLSNAPLGPQFPFTGVDDRESWPSVFYNRTCQCSGNFMGFNCGNCKFGFWGPNCTERRLLVRRNIFDLSAPEKDKFFAYLTLAKHTISSDYVIPIGTYGQMKNGSTPMFNDINIYDLFVWMHYYVSMDALLGGSEIWRDIDFAHEAPAFLPWHRLFLLRWEQEIQKLTGDENFTIPYWDWRDAEKCDICTDEYMGGQHPTNPNLLSPASFFSSWQIVCSRLEEYNSHQSLCNGTPEGPLRRNPGNHDKSRTPRLPSSADVEFCLSLTQYESGSMDKAANFSFRNTLEGFASPLTGIADASQSSMHNALHIYMNGTMSQVQGSANDPIFLLHHAFVDSIFEQWLRRHRPLQEVYPEANAPIGHNRESYMVPFIPLYRNGDFFISSKDLGYDYSYLQDSDPDSFQDYIKSYLEQASRIWSWLLGAAMVGAVLTALLAGLVSLLCRHKRKQLPEEKQPLLMEKEDYHSLYQSHL
BRAIN
  TSA Expression Rate (ER): 91%
THYROID
  TSA Expression Rate (ER): 0%
[1]
  Expression Rate (ER) %: 87%

B5: ODF4 (protein, UniProt Q2M2E3 1-257, looked up)
Outer dense fiber protein 4: MDAEYSGNEFPRSEGERDQHQRPGKERKSGEAGWGTGELGQDGRLLSSTLSLSSNRSLGQRQNSPLPFQWRITHSFRWMAQVLASELSLVAFILLLVVAFSKKWLDLSRSLFYQRWPVDVSNRIHTSAHVMSMGLLHFYKSRSCSDLENGKVTFIFSTLMLFPINIWIFELERNVSIPIGWSYFIGWLVLILYFTCAILCYFNHKSFWSLILSHPSGAVSCSSSFGSVEESPRAQTITDTPITQEGVLDPEQKDTHV
BREAST
  TSA Expression Rate (ER): 63%
TSA expression rate in PROSTATE cancer
  Expression Rate (ER) %: 0%

B6: MAGE-A1l (protein, UniProt P43364 1-429, looked up)
Melanoma-associated antigen 11: METQFRRGGLGCSPASIKRKKKREDSGDFGLQVSTMFSEDDFQSTERAPYGPQLQWSQDLPRVQVFREQANLEDRSPRRTQRITGGEQVLWGPITQIFPTVRPADLTRVIMPLEQRSQHCKPEEGLQAQEEDLGLVGAQALQAEEQEAAFFSSTLNVGTLEELPAAESPSPPQSPQEESFSPTAMDAIFGSLSDEGSGSQEKEGPSTSPDLIDPESFSQDILHDKIIDLVHLLLRKYRVKGLITKAEMLGSVIKNYEDYFPEIFREASVCMQLLFGIDVKEVDPTSHSYVLVTSLNLSYDGIQCNEQSMPKSGLLIIVLGVIFMEGNCIPEEVMWEVLSIMGVYAGREHFLFGEPKRLLTQNWVQEKYLVYRQVPGTDPACYEFLWGPRAHAETSKMKVLEYIANANGRDPTSYPSLYEDALREEGEGV
BRAIN
  TSA Expression Rate (ER): 85%

B7: ZNF165 (protein, UniProt P49910 1-485, looked up)
Zinc finger protein 165: MATEPKKAAAQNSPEDEGLLIVKIEEEEFIHGQDTCLQRSELLKQELCRQLFRQFCYQDSPGPREALSRLRELCCQWLKPEIHTKEQILELLVLEQFLTILPGDLQAWVHEHYPESGEEAVTILEDLERGTDEAVLQVQAHEHGQEIFQKKVSPPGPALNVKLQPVETKAHFDSSEPQLLWDCDNESENSRSMPKLEIFEKIESQRIISGRISGYISEASGESQDICKSAGRVKRQWEKESGESQRLSSAQDEGFGKILTHKNTVRGEIISHDGCERRLNLNSNEFTHQKSCKHGTCDQSFKWNSDFINHQIIYAGEKNHQYGKSFKSPKLAKHAAVFSGDKTHQCNECGKAFRHSSKLARHQRIHTGERCYECNECGKSFAESSDLTRHRRIHTGERPFGCKECGRAFNLNSHLIRHQRIHTREKPYECSECGKTFRVSSHLIRHFRIHTGEKPYECSECGRAFSQSSNLSQHQRIHMRENLLM
BRAIN
  TSA Expression Rate (ER): 100%
HCC
  TSA Expression Rate (ER): 52%
LUNG
  TSA Expression Rate (ER): 21%
TSA expression rate in CRC
  Expression Rate (ER) %: 43%
TSA expression rate in GASTRIC cancer
  Expression Rate (ER) %: 9%
TSA expression rate in LEUKEMIAS
  Expression Rate (ER) %: 52%

B8: GAGE-2 (protein, UniProt Q6NT46 1-116, looked up)
G antigen 2A: MSWRGRSTYRPRPRRYVEPPEMIGPMRPEQFSDEVEPATPEEGEPATQRQDPAAAQEGQDEGASAGQGPKPEAHSQEQGHPQTGCECEDGPDGQEMDPPNPEEVKTPEEGEKQSQC
PANCREATIC
  TSA Expression Rate (ER): 17%

B9: CEA (protein, UniProt P06731 35-685, looked up)
Cell adhesion molecule CEACAM5: KLTIESTPFNVAEGKEVLLLVHNLPQHLFGYSWYKGERVDGNRQIIGYVIGTQQATPGPAYSGREIIYPNASLLIQNIIQNDTGFYTLHVIKSDLVNEEATGQFRVYPELPKPSISSNNSKPVEDKDAVAFTCEPETQDATYLWWVNNQSLPVSPRLQLSNGNRTLTLFNVTRNDTASYKCETQNPVSARRSDSVILNVLYGPDAPTISPLNTSYRSGENLNLSCHAASNPPAQYSWFVNGTFQQSTQELFIPNITVNNSGSYTCQAHNSDTGLNRTTVTTITVYAEPPKPFITSNNSNPVEDEDAVALTCEPEIQNTTYLWWVNNQSLPVSPRLQLSNDNRTLTLLSVTRNDVGPYECGIQNELSVDHSDPVILNVLYGPDDPTISPSYTYYRPGVNLSLSCHAASNPPAQYSWLIDGNIQQHTQELFISNITEKNSGLYTCQANNSASGHSRTTVKTITVSAELPKPSISSNNSKPVEDKDAVAFTCEPEAQNTTYLWWVNGQSLPVSPRLQLSNGNRTLTLFNVTRNDARAYVCGIQNSVSANRSDPVTLDVLYGPDTPIISPPDSSYLSGANLNLSCHSASNPSPQYSWRINGIPQQHTQVLFIAKITPNNNGTYACFVSNLATGRNNSIVKSITVSASGTSPGLSA
PANCREATIC
  TSA Expression Rate (ER): 60%
